# From the nanobody polyreactivity screen of Harvey et al. (2022)
# Test: yeast display, Sf9 membrane polyspecificity reagent, FACS + sequencing; frameworks hold sequencing errors
# In short: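 Synthetic nanobody libraries on Saccharomyces cerevisiae BJ5465 were galactose-induced for 36–48 hours, stained 1 hour at 4 °C with 10% biotinylated, detergent-solubilized Sf9 membrane reagent and enriched on streptavidin microbeads. FACS then separated cells into low and high (top ~1%) gates by anti-HA (expression) and streptavidin (reagent binding) fluorescence. Genes were colony-PCR amplified, MiSeq 2 × 250 sequenced and CDR-length filtered. A clone's polyreactivity label is that of its gate of origin.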
row,Sequence,polyreactivity (PSR sort gate)
1,QVQLVESGGGLVQAGGSLRLSCAASGSIFNRYAMGWYRQAPGKERELVAAIRSGDNTNYADSVKGRFTISRDNAKNTVYLQMNSLKPEDTAVYYCAKRTYYRSRTVGWGKMDYWGQGTQVTVSS,high polyreactivity
2,QVQLVESGGGLVQAGGSLRLSCAASGSIFNRYAMGWYRQAPGKERELVAAISSTGSTYYADSVKGRFTISRDNAKNTVYLQMNSLKPEDTAVYYCNADATHDWLRVDTYEYWGQGTQVTVSS,low polyreactivity
3,QVQLVESGGGLVQAGGSLRLSCAASGSIFNRYTMGWYRQAPGKERELVAAISKRGGSTYYADSVKGRFTISRDNAKNTVYLQMNSLKPEDTAVYYCAAAAYHSGKGGGYWGQGTQVTVSS,high polyreactivity
4,QVQLVESGGGLVQAGGSLRLSCAASGSIFNSNVMGWYRQAPGKERELVAAISTSGGSTHYADSVKGRFTISRDNAKNTVYLQMNSLKPEDTAVYYCAARVSSYSQLYYYWGQGTQVTVSS,high polyreactivity
5,QVQLVESGGGLVQAGGSLRLSCAASGSIFNSYAMGWYRQAPGKERELVAAISGSGTRTYYADSVKGRFTISRDNAKNTVYLQMNSLKPEDTAVYYCAGYGYWGQGTQVNVSS,high polyreactivity
6,QVQLVESGGGLVQAGGSLRLSCAASGSIFNSYAMGWYRQAPGKERELVAAISKRGGSTYYADSVKGRFTISRDNAKNTVYLQMNSLKPEDTAVYYCAAEYYYAGWSYSYDYWGQGTQVTVSS,high polyreactivity
7,QVQLVESGGGLVQAGGSLRLSCAASGSIFNSYAMGWYRQAPGKERELVAAITRSDGSTYYADSVKGRFTISRDKAKNTVYLQMNSLKPEDTAVYYCAKGVGGYIYSEYDYWGQGTQVTVSS,low polyreactivity
8,QVQLVESGGGLVQAGGSLRLSCAASGSIFNTNAMGWYRQAPGKERELVAAISKNAGRTFYADSVKGRFTISRDNAKNTVYLQMNSLKPEDTAVYYCAARGVGPQPGYQRFNYWGQGTQVTVSS,high polyreactivity
9,QVQLVESGGGLVQAGGSLRLSCAASGSIFNTYVMGWYRQAPGKERELVAAITSSGGRTYYADSVKGRFTISRDNAKNTVYLQMNSLKPEDTAVYYCNTAQRWVGRNDYWGQGTQVTVSS,high polyreactivity
10,QVQLVESGGGLVQAGGSLRLSCAASGSIFNWYAMGWSRQAPGKERELVAAISEDGGSTYYADSVKGRFTISRDNAKNTVYLQMNTLKPEDTAVYYCATPVASVTGYDYWGQGTQVTVSS,low polyreactivity
11,QVQLVESGGGLVQAGGSLRLSCAASGSIFNYNAMGWYRQAPGKERELVAAITWSGGTTYYADSVKGRFTISRDNAKNTVYLQMNSLIPEDTAVYYCAAEWWDGSYPLYEYYYWGQGTQVNVSS,high polyreactivity
12,QVQLVESGGGLVQAGGSLRLSCAASGSIFNYNDMGWYRQAPGKERELVATITNGGGTNYADSVKGRFTISRDNAKNTVFLQMNSLKPEDTAVYYCAAGRSGWGYDSWGQGTQVTVSS,low polyreactivity
13,QVQLVESGGGLVQAGGSLRLSCAASGSIFNYSAMGWYRQARGKERELVAGITTSGGSTYYADSVKGRFTISRDNAKNTVYLQMNSLKPEDTAVYYCAAYDYISSTYFLDDYWGQGTQVTVSS,low polyreactivity
14,QVQLVESGGGLVQAGGSLRLSCAASGSIFNYYAMGWYRQAPGKERELVAAITSGVSTYADSVKGRFTISRDNAKNTVYLQMNSLKPEVTAVYYCADRVTGPRGDYWGQGTQVTVSS,low polyreactivity
15,QVQLVESGGGLVQAGGSLRLSCAASGSIFNYYDMGWYRQAPGKERELVAAIDLTGGTTYYADSVKGRFTISRDNAKNTVYLQMNSLKPEDTAVYYCAAQYIRSSWWGYDYWGQGTQVSVSS,low polyreactivity
16,QVQLVESGGGLVQAGGSLRLSCAASGSIFPANAMGWYRQAPGKERELVAGISERGSSTYYADSVKGRFTISRDNAKNTDYLQMNSLKPEDTAVYYCAADDVGRYWSYTHNWARGDYWGQGTQVTVSS,low polyreactivity
17,QVQLVESGGGLVQAGGSLRLSCAASGSIFPAYAMGWYRQAPGKERELVAAITDRGGYTYYADSVKGRFTISRDNAKNTVYLQMNSLKPEDT,low polyreactivity
18,QVQLVESGGGLVQAGGSLRLSCAASGSIFPAYAMGWYRQAPGKERELVAAITFSGGSTYYADSVKGRFTISRDNAKNTVYLQMNSLKPEDTAVYYCATDSYGWRFNRAITSYGGDYWGQGTQVTVSS,low polyreactivity
19,QVQLVESGGGLVQAGGSLRLSCAASGSIFPAYAMGWYRQAPGTERELVAAITFSGGRTYYADSVKGRFTISRDNAKNTVYLQMNSLKPEDTAVYDCAAYGAPSGTGAKYGYWGQGTQVTVSS,low polyreactivity
20,QVQLVESGGGLVQAGGSLRLSCAASGSIFPEYVMGWYRQAPGKERELVAAISWSGGSTYYADSVKGRFTISRDNAKNTVYLQMNSLKPEDTAVYYCNRVPSWRIDYDYWGQGTQVTVSS,low polyreactivity
21,QVQLVESGGGLVQAGGSLRLSCAASGSIFPFNAMGWYRQAPGKERELVAAIRWSDGRTYYADSVKGRFTISRDNAKNTVYLQMNSLKPEDTAVYYCAAKSYWGQGTQVTVSS,high polyreactivity
22,QVQLVESGGGLVQAGGSLRLSCAASGSIFPFNAMGWYRQAPGKERELVAAISRRGTGTYYADSVKGRFTISRDNAKNTVYLQMNSLKPEDTAVYYCNAVVRAGHYDYWGQGTQVTVSS,high polyreactivity

row,Sequence,polyreactivity (PSR sort gate)
1,QVQLVESGGGLVQAGGSLRLSCAASGSIFPFYALGLYSQAPGTDRELVAGISNGDSPNYADSVKGRFTIARDNAKNSVYLQLNSLKPEDTGVYYCATDLPGGRYYGPYDYWGQGTQGTVSS,low polyreactivity
2,QVQLVESGGGLVQAGGSLRLSCAASGSIFPFYAMGWYRKAPGKERELVAAISDRGGSTYYADSVKGRFTISRDNAKNTVYLQMNSLKPDDTAVYYCAKGAEVSQGYTDEYDYWGQGTQVTVSS,low polyreactivity
3,QVQLVESGGGLVQAGGSLRLSCAASGSIFPGFAMGWYRQAPGKERELVAAISTSGGNTYYADSVKGRFTISRDNAKNTVYLQMNSLKPEDTAVYYCAVRHRLYTAGYDYWGQGTQVTVSS,low polyreactivity
4,QVQLVESGGGLVQAGGSLRLSCAASGSIFPGYAMGWYRPAPGKDRELVATIPWSGGSTYYADSVKGRFTISRDNENNTVYLQMNSLKPEDTAVYYCYADSYWYYQWYYYGLYDYWGAGTQVTVSS,low polyreactivity
5,QVQLVESGGGLVQAGGSLRLSCAASGSIFPGYAMGWYRQAPGKERELVATITWSGGSTYYADSVKGRFTISRDNAKNTVYLQMNSLKPADTAVYYCNADSNWYYQWNYYGLYDYWGQGTQVTVSS,low polyreactivity
6,QVQLVESGGGLVQAGGSLRLSCAASGSIFPGYAMGWYRQAPGNERELVAAISSGGNTHYADSVKGRFTISRDNAKNTVYLQMNSLKPEDTAVYYCAASYDYTYYWGQGTQVTVSS,low polyreactivity
7,QVQLVESGGGLVQAGGSLRLSCAASGSIFPGYARGWYRQAPGKERELVATITWSGGSTYYADSVKGRFTISRDNAKNTVYLQMNILIPEDTAVYYCNADSNWYYQWNYYGLYDYWGQGNQVTVSS,low polyreactivity
8,QVQLVESGGGLVQAGGSLRLSCAASGSIFPHNAMGWYRQAPGKERELVAAISTSGGRTYYADSVKGRFTISRDNAKNTVYLQMNSLKPVDTAVYYCNARSVRSRYDYWGQGTQVTVSS,high polyreactivity
9,QVQLVESGGGLVQAGGSLRLSCAASGSIFPHYAMGWYRQAPGKERELVASITYDGDSTYYADSVKGRFTISRDNAKNTVYLQMNSLKPEDTAVYYCAADYYYVYSSFGHYYWGQGTQVTVSS,low polyreactivity
10,QVQLVESGGGLVQAGGSLRLSCAASGSIFPIYAMGWYRQAPGKERELVAAIDSSGGSTYYADSVKGRFTISRDNAKNTVYLQMNSLKPEDTAVYYCAADFGSKSTPYDYWGQGTQVTVSS,low polyreactivity
11,QVQLVESGGGLVQAGGSLRLSCAASGSIFPLYAMGWSRQAPGKERELVAAITWRGGSTYYADSVKGRFTITRDNAKNTVYLQMNSLKPEDTAVYYCNRDLVPRFDYWGQGTQVTVSS,low polyreactivity
12,QVQLVESGGGLVQAGGSLRLSCAASGSIFPLYVMGWYRQAPGKERELVAAISSAADTYYADSVKGRFTISRDNAKNTVYLQMNSLKPEDTAVYYCAAAVLYWVGYGYWGQGTQVTVSS,low polyreactivity
13,QVQLVESGGGLVQAGGSLRLSCAASGSIFPPYALGWYRQAPGKERELVAAIDWGGSSTYYADSVKGRFTISRDNAKYTVYLQMNSLKPEATAVYYCAAEVVHGYYLYEYWGQGTQVTVSS,high polyreactivity
14,QVQLVESGGGLVQAGGSLRLSCAASGSIFPPYAMGWYRQAPGKERELVATITIRGGSTYYADSVKGRFTISRDNAKNTVYLEMNSLKPDDTAVYYCAADYTKYYRSYYYWGQGTQVTVSS,high polyreactivity
15,QVQLVESGGGLVQAGGSLRLSCAASGSIFPPYTMGWFRQAPGKELELVATISSTGITNYADSVKGRFTNSRDNAKNTVYLQMNSLKQEDTAVYYCAAGLWYSFDYWGQGTQVTVSS,high polyreactivity
16,QVQLVESGGGLVQAGGSLRLSCAASGSIFPPYVMGWYRQAPGKERELVASITTSGGSTYYADSVKGRFTISRDNAKNTVYLQMNSLKPEDTAVYYCAARWYYGGKSAGPGGGYWGQGTQVTVSS,low polyreactivity
17,QVQLVESGGGLVQAGGSLRLSCAASGSIFPRDAMGRYRQAPGKERELVAAITGSGSSTYYADSVKGRFTISRDNAKNTVYLQMNSLKPEDTAVYYCNTARPTAAYDYWGQGTKVTVSS,low polyreactivity
18,QVQLVESGGGLVQAGGSLRLSCAASGSIFPRNAMGWSRQAPGKERELVARINSGGTTKYADSVKGRFTISRDNAKNTVYLQMNSLKPEDTAVYYCNADTYILDPLRKSYGYDYWGQGTQVTVSS,low polyreactivity
19,QVQLVESGGGLVQAGGSLRLSCAASGSIFPRNAMGWYRQAPGKERELVAAITVSDGRTYYADSVKGRFTISRDNAKNTVYLQMNSLKPEDTAVYYCAAGYTYYSLYGYWGQGTQVTVSS,low polyreactivity
20,QVQLVESGGGLVQAGGSLRLSCAASGSIFPRYAMGWYRQAPGKERELVATISQSGGSTYYADSVKGRFTISRDSAKNTVYLQMNSLKPEDTAVYYCAAKVYRSAYYVGKYYPYYYWGQGTQVTVSS,high polyreactivity
21,QVQLVESGGGLVQAGGSLRLSCAASGSIFPSNAMGWYRQAPGKERELVAAISSSGGRTYYADSVKGRFTISRDNAKNTVYLQMNSLKPEDTAVYYCAAKYTVYGVGYYYWGQGTQVTVSS,high polyreactivity
